Source: patent US20240117018A1

Experiments:
Assay in all cases: cell-based or functional assay
[1] = target: HIV-1 Env of pseudovirus 3365.v2.c2 (HIV-1)
[2] = target: HIV-1 Env of pseudovirus 246F C1G (HIV-1)
[3] = target: HIV-1 Env of pseudovirus THRO4156.18 (HIV-1)
[4] = target: HIV-1 Env of pseudovirus RHPA4259.7 (HIV-1)
[5] = target: HIV-1 Env of pseudovirus Ce704809221_1B3 (HIV-1)
[6] = target: HIV-1 Env of pseudovirus CNE53 (HIV-1)
[7] = target: HIV-1 Env of pseudovirus 1006_11_C3_1601 (HIV-1)
[8] = target: HIV-1 Env of pseudovirus Du422.1 (HIV-1)
[9] = target: HIV-1 Env of pseudovirus CAP210.2.00.E8 (HIV-1)
[10] = target: HIV-1 Env of pseudovirus Ce0682_E4 (HIV-1)
[11] = target: HIV-1 Env of pseudovirus Ce1172_H1 (HIV-1)
[12] = target: HIV-1 Env of pseudovirus Du156.12 (HIV-1)
[13] = target: HIV-1 Env of pseudovirus ZM214M.PL15 (HIV-1)
[14] = target: HIV-1 Env of pseudovirus HIV-16845-2.22 (HIV-1)
[15] = target: HIV-1 Env of pseudovirus 1056_10_TA11_1826 (HIV-1)
[16] = target: HIV-1 Env of pseudovirus Ce0393_C3 (HIV-1)
[17] = target: HIV-1 Env of pseudovirus REJO4541.67 (HIV-1)
[18] = target: HIV-1 Env of pseudovirus 6535.3 (HIV-1)
[19] = target: HIV-1 Env of pseudovirus Du172.17 (HIV-1)
[20] = target: HIV-1 Env of pseudovirus ZM249M.PL1 (HIV-1)
[21] = target: HIV-1 Env of pseudovirus Ce2010_F5 (HIV-1)
[22] = target: HIV-1 Env of pseudovirus HIV-001428-2.42 (HIV-1)
[23] = target: HIV-1 Env of pseudovirus TRJO4551.58 (HIV-1)
[24] = target: HIV-1 Env of pseudovirus ZM233M.PB6 (HIV-1)
[25] = target: HIV-1 Env of pseudovirus Ce703010054_2A2 (HIV-1)
[26] = target: HIV-1 Env of pseudovirus CNE30 (HIV-1)
[27] = target: HIV-1 Env of pseudovirus ZM197M.PB7 (HIV-1)
[28] = target: HIV-1 Env of pseudovirus CNE20 (HIV-1)
[29] = target: HIV-1 Env of pseudovirus PVO.4 (HIV-1)
[30] = target: HIV-1 Env of pseudovirus CNE52 (HIV-1)
[31] = target: HIV-1 Env of pseudovirus 6240_08_TA5_4622 (HIV-1)
[32] = target: HIV-1 Env of pseudovirus WITO4160.33 (HIV-1)
[33] = target: HIV-1 Env of pseudovirus 1012_11_TC21_3257 (HIV-1)
[34] = target: HIV-1 Env of pseudovirus Q842.d12 (HIV-1)

8ANC195 (antibody)
IC50 [1]: > 30 µg/mL
IC80 [1]: > 30 µg/mL
IC50 [2]: 12.8 µg/mL
IC80 [2]: > 50 µg/mL
IC50 [3]: > 50 µg/mL
IC80 [3]: > 50 µg/mL
IC50 [4]: 0.34 µg/mL
IC80 [4]: 1.56 µg/mL
IC50 [5]: 0.48 µg/mL
IC80 [5]: 3.52 µg/mL
IC50 [6]: > 50 µg/mL
IC80 [6]: > 50 µg/mL
IC50 [7]: 0.43 µg/mL
IC80 [7]: 1.98 µg/mL
IC50 [8]: > 50 µg/mL
IC80 [8]: > 50 µg/mL
IC50 [9]: > 50 µg/mL
IC80 [9]: > 50 µg/mL
IC50 [10]: 0.2 µg/mL
IC80 [10]: 1.29 µg/mL
IC50 [11]: 42.3 µg/mL
IC80 [11]: > 50 µg/mL
IC50 [12]: 0.22 µg/mL
IC80 [12]: 1.56 µg/mL
IC50 [13]: 0.91 µg/mL
IC80 [13]: 12.3 µg/mL
IC50 [14]: 3.3 µg/mL
IC80 [14]: 20.1 µg/mL
IC50 [15]: > 50 µg/mL
IC80 [15]: > 50 µg/mL
IC50 [16]: 6.77 µg/mL
IC80 [16]: > 50 µg/mL
IC50 [17]: 0.08 µg/mL
IC80 [17]: 0.68 µg/mL
IC50 [18]: 0.2 µg/mL
IC80 [18]: 0.91 µg/mL
IC50 [19]: > 30 µg/mL
IC80 [19]: > 30 µg/mL
IC50 [20]: > 50 µg/mL
IC80 [20]: > 50 µg/mL
IC50 [21]: > 50 µg/mL
IC80 [21]: > 50 µg/mL
IC50 [22]: > 50 µg/mL
IC80 [22]: > 50 µg/mL
IC50 [23]: 0.19 µg/mL
IC80 [23]: 1.17 µg/mL
IC50 [24]: 7.39 µg/mL
IC80 [24]: 43.5 µg/mL
IC50 [25]: 13.6 µg/mL
IC80 [25]: > 50 µg/mL
IC50 [26]: 7.52 µg/mL
IC80 [26]: 40.5 µg/mL
IC50 [27]: 23.4 µg/mL
IC80 [27]: > 50 µg/mL
IC50 [28]: 0.5 µg/mL
IC80 [28]: 3.19 µg/mL
IC50 [29]: 0.52 µg/mL
IC80 [29]: 1.87 µg/mL
IC50 [30]: 5.59 µg/mL
IC80 [30]: 43.1 µg/mL
IC50 [31]: > 50 µg/mL
IC80 [31]: > 50 µg/mL
IC50 [32]: > 50 µg/mL
IC80 [32]: > 50 µg/mL
IC50 [33]: > 50 µg/mL
IC80 [33]: > 50 µg/mL
IC50 [34]: > 30 µg/mL
IC80 [34]: > 30 µg/mL
